Measured values taken from US20200085917A1 (UNIVERSITY OF PITTSBURGH OF THE COMMONWEALTH SYSTEM OF …, published 2020).

B1: Lyrm7_IPI:IPI00117832.1 (other, mouse, UniProt Q9DA03 1-104, looked up)
chain: MGQPAKVLQLFKTLHRTRQQVFKNDKRALEAARVKINEEFKKHKNETSPEKIKEMMKLGSDVELLLRTAVIQGIHTDHDTLQLVPRKDLLTENVPYCDAPTQKQ
B2: C1qbp_IPI:IPI00132799.4 (other, mouse, UniProt O35658 71-278, looked up)
chain: LHTEGDKAFVEFLTDEIKEEKKIQKHKSLPKMSGDWELEVNGTEAKLLRKVAGEKITVTFNINNSIPPTFDGEEEPSQGQKAEEQEPERTSTPNFVVEVTKTDGKKTLVLDCHYPEDEIGHEDEAESDIFSIKEVSFQATGDSEWRDTNYTLNTDSLDWALYDHLMDFLADRGVDNTFADELVELSTALEHQEYITFLEDLKSFVKNQ
B3: Synj2bp_IPI:IPI00109206.1 (other, mouse, UniProt Q9D6K5 1-145, looked up)
chain: MNGRVDYLVTEEEINLTRGPSGLGFNIVGGTDQQYVSNDSGIYVSRIKEDGAAAQDGRLQEGDKILSVNGQDLKNLLHQDAVDLFRNAGCAVSLRVQHRLPVQNGPIVHRGEGEPSGVPVAMVLLPVFALTMVAVWAFVRYRKQL
B4: Atp5f1_IPI:IPI00341282.2 (other, mouse, UniProt Q9CQQ7 43-256, looked up)
chain: PLPPLPEYGGKVRLGLIPEEFFQFLYPKTGVTGPYVLGTGLSLYFLSKEIYVITPETFSTISVVGLIVYVIKKYGASFGEFIDKLNEEKIAQLEEVKQSSMKQIQDAIDMEKAQQALVQKRHYLFDVQRNNIALALEVTYRERLHKAYKEVKNRLDYHISVQNMMRRKEEEHMIDWVEKHVVKSISVQQEKETIAKCIEDLKLLAKKAQAQPIM
B5: Cplx2_IPI:IPI00111501.1 (other, mouse, UniProt P84086 1-134, looked up)
chain: MDFVMKQALGGATKDMGKMLGGEEEKDPDAQKKEEERQEALRQQEEERKAKHARMEAEREKVRQQIRDKYGLKKKEEKEAEEKAALEQPCEGSLTRPKKAIPAGCGDEEEEEEESILDTVLKYLPGPLQDMFKK
B6: Chchd4_IPI:IPI00124389.1 (other, mouse, UniProt Q8VEA4 1-139, looked up)
chain: MSYCRQEGKDRIIFVTKEDHETPSSAELVADDPNDPYEEHGLILPNGDINWNCPCLGGMASGPCGEQFKSAFSCFHYSTEDIKGSDCIDQFRAMQECMQKYPDLYPQDEEEEEEAKPVEPVEETADTKVSAAKEQGTSS
B7: Mrpl43_IPI:IPI00278781.1 (other, mouse, UniProt Q99N89 1-183, looked up)
chain: MTGRGTSSRFLTSVLHNGLGRYVQQLQRLSLSLSRDAPSSRGAREFVEREVTDFARRNPGVVVYVNPRPCAMPRIVAEYLNGAVREENVNSKSVEEIKSLVQKLADQSGLDVIRIRKPFHTDNPSIQGQWTPSPTNGLPSTGCGPENSGILLQLRCKHSKEPGALDRERDRIGSSFGFQAQAE
B8: Pfn2_IPI:IPI00227805.6 (other, mouse, UniProt Q9JJV2 2-140, looked up)
chain: AGWQSYVDNLMCDGCCQEAAIVGYCDAKYVWAATAGGVFQSITPVEIDMIVGKDREGFFTNGLTLGAKKCSVIRDSLYVDGDCTMDIRTKSQGGEPTYNVAVGRAGRVLVFVMGKEGVHGGGLNKKAYSMAKYLRDSGF
B9: Uqcrb_IPI:IPI00132347.1 (other, mouse, UniProt Q9D855 2-111, looked up)
chain: AGRSAVSASSKWLDGFRKWYYNAAGFNKLGLMRDDTLHETEDVKEAIRRLPEDLYNDRMLRIKRALDLTMRHQILPKDQWTKYEEDKFYLEPYLKEVIRERKEREEWAKK
B10: Uqcrq_IPI:IPI00224210.5 (other, mouse, UniProt Q9CQ69 1-82, looked up)
chain: MGREFGNLARIRHVISYSLSPFEQRAFPSYFSKGIPNVLRRTRERILRVAPPFVVVYLIYTWGNQEFEQSKRKNPAMYENDK
B11: Iscu_IPI:IPI00110578.1 (other, mouse, UniProt Q9D7P6 36-168, looked up)
chain: YHKKVVDHYENPRNVGSLDKTSKNVGTGLVGAPACGDVMKLQIQVDEKGKIVDARFKTFGCGSAIASSSLATEWVKGKTVEEALTIKNTDIAKELCLPPVKLHCSMLAEDAIKAALADYKLKQESKKEEPEKQ
B12: Lyrm4_IPI:IPI00169804.1 (other, mouse, UniProt Q8K215 1-91, looked up)
chain: MAASSRAQVLDLYRAMMRESKHFSAYNYRMYAVRRIRDAFRENKNVKDPVEIQALVNKAKRDLEIIRRQVHIGQLYSTDKLIIENQEKPRT
B13: Fabp5_IPI:IPI00114162.3 (other, mouse, UniProt Q05816 2-135, looked up)
chain: ASLKDLEGKWRLMESHGFEEYMKELGVGLALRKMAAMAKPDCIITCDGNNITVKTESTVKTTVFSCNLGEKFDETTADGRKTETVCTFQDGALVQHQQWDGKESTITRKLKDGKMIVECVMNNATCTRVYEKVQ
B14: Brp44_IPI:IPI00131896.1 (other, mouse, UniProt Q9D023 1-127, looked up)
chain: MAAAGARGLRATYHRLMDKVELLLPKKLRPLYNHPAGPRTVFFWAPIMKWGLVCAGLADMARPAEKLSTAQSTVLMATGFIWSRYSLVIIPKNWSLFAVNFFVGSAGASQLFRIWRYNQELKSKGIQ
B15: Hint2_IPI:IPI00133034.3 (other, mouse, UniProt Q9D0S9 18-163, looked up)
chain: LAAAGARGAQVRGNAGVSDGSEVAKAQKAAPGGASPTIFSRILDRSLPADILYEDQQCLVFRDVAPQAPVHFLVIPRKPIPRISQAEEDDQQLLGHLLLVAKKIAQAQGLKDGYRLVVNDGKMGAQSVYHLHIHVLGGRQLQWPPG
B16: Fahd1_IPI:IPI00468850.1 (other, mouse, UniProt Q8R0F8 25-221, looked up)
chain: ADHVKEMRSTVLSEPVLFLKPSTAYAPEGSPVLMPAYCRNLHHEVELGVLLGKRGEAIPEAAAMDYVAGYALCLDMTARDVQEECKKKGLPWTLAKSFTSSCPVSAFVPKEKIPDPHALRLWLKVNGELRQEGKTSSMIFSIPYIISYVSKIITLEEGDLILTGTPKGVGPIKENDEIEAGIDGVVSMRFKVKRSEY
B17: Tomm20_IPI:IPI00120715.1 (other, mouse, UniProt Q9DCC8 1-145, looked up)
chain: MVGRNSAIAAGVCGALFIGYCIYFDRKRRSDPNFKNRLRERRKKQKLAKERAGLSKLPDLKDAEAVQKFFLEEIQLGEELLAQGDYEKGVDHLTNAIAVCGQPQQLLQVLQQTLPPPVFQMLLTKLPTISQRIVSAQSLAEDDVE
B18: Rab5b_IPI:IPI00116563.2 (other, mouse, UniProt P61021 2-215, looked up)
chain: TSRSTARPNGQPQASKICQFKLVLLGESAVGKSSLVLRFVKGQFHEYQESTIGAAFLTQSVCLDDTTVKFEIWDTAGQERYHSLAPMYYRGAQAAIVVYDITNQETFARAKTWVKELQRQASPSIVIALAGNKADLANKRMVEYEEAQAYADDNSLLFMETSAKTAMNVNDLFLAIAKKLPKSEPQNLGGAAGRSRGVDLHEQSQQNKSQCCSN
B19: Rab2a_IPI:IPI00137227.1 (other, mouse, UniProt P53994 2-212, looked up)
chain: AYAYLFKYIIIGDTGVGKSCLLLQFTDKRFQPVHDLTIGVEFGARMITIDGKQIKLQIWDTAGQESFRSITRSYYRGAAGALLVYDITRRDTFNHLTTWLEDARQHSNSNMVIMLIGNKSDLESRREVKKEEGEAFAREHGLIFMETSAKTASNVEEAFINTAKEIYEKIQEGVFDINNEANGIKIGPQHAATNASHGSNQGGQQAGGGCC
B20: Cplx1_IPI:IPI00132278.1 (other, mouse, UniProt P63040 1-134, looked up)
chain: MEFVMKQALGGATKDMGKMLGGDEEKDPDAAKKEEERQEALRQAEEERKAKYAKMEAEREVMRQGIRDKYGIKKKEEREAEAQAAMEANSEGSLTRPKKAIPPGCGDEPEEEDESILDTVIKYLPGPLQDMFKK
B21: Rab15_IPI:IPI00170032.1 (other)
chain: MAKQYDVLFRLLLIGDSGVGKTCLLCRFTDNEFHSSHISTIGVDFKMKTIDVDGIKVRIQIWDTAGQERYQTITKQYYRRAQGIFLVYDISSERSYQHIMKWVSDVDEYAPEGVQKILIGNKADEEQKRQVGREQGQQLAKEYGMDFYETSACTNLNIKESFTRLTELVLQAHRKELDGLRTRASNELALAELEEDEGKPEGPANSSKTCWC
modifications: Natural C-terminal geranylgeranylation of the cysteines (CWC motif) in the endogenous protein is not carried by the letters.
B22: Ppdpf_IPI:IPI00133078.1 (other, mouse, UniProt Q9CR37 1-115, looked up)
chain: MAAIPSSGSLVATHDYYRRRLGSSSSSSSGGSAEYPGDAVLQSPGLPKADPGHWWASFFFGKSTLPFMTTVLESPERSAESPQVSRSPMTCGLTPETMKQQPVIHSGQTNPRDLS
B23: Ndufa11_IPI:IPI00318645.6 (other, mouse, UniProt Q9D8B4 1-141, looked up)
chain: MVKRFFESYHEVPDGTQCHRKTYITTALGGICGIIGSAYRVSLNPADSTLEAVARVGRYTFTAAAIGAMFGLTTCVSAQVREKPDDPLNYFIGGCAGGLTLGARTHSYGTAAMGCVYMGTAAALFKIGKLEGWELFPTPKV
B24: Tim23 (endogenous, mouse forebrain mitochondria) (other, UniProt Q9WTQ8 1-209, looked up)
chain: MEGGGRSSNKSTSGLAGFFGAGGAGYSNADLAGVPLTGMNPLSPYLNVDPRYLVQDTDEFILPTGANKTRGRFELAFFTIGGCCMTGAAFGAMNGLRLGLKETQSMAWSKPRNVQILNMVTRQGALWANTLGSLALLYSAFGVIIEKTRGAEDDLNTVAAGTMTGMLYKCTGGLRGIARGGLAGLTLTSLYALYNNWVHMKGSLLQQSL
notes: also called Timm23_IPI:IPI00123712.1; Tim23 subunit
B25: Mrps33_IPI:IPI00135214.1 (other, mouse, UniProt Q9D2R8 2-106, looked up)
chain: SPLSEYALRMSRLSARIFGEVARSTDSKSMKVVSLFSEQPLAKKKETYDWYPNHNTYFALMGNLRFLGLYRDEHQDFKDEQRRLKKLRGKGKPRKGEGKRATKKK
B26: Cisd3_IPI:IPI00345740.4 (other, mouse, UniProt B1AR13 1-137, looked up)
chain: MGFRRLSFPTDFIFLFPNHICLPALSKPYQRREISSWLARWFPKDPAKPVVAQKTPIRLELVAGKTYRWCVCGRSKNQPFCDGSHFFQRTGLSPLKFKAQETRTVALCTCKATQRPPYCDGTHKSEQVQKAEVGSPL

What follows are binders tested against T1, GST alone (UniProt P08515 1-218 = GST) (assay: GST pull-down, LC-MS/MS).
T1 construct: Negative control of the pull-downs; also called control GST
Protocol: Extracts were spun at 14,000 r.p.m. at 4° C., and clarified supernatants were incubated with glutathione 4B Sepharose beads (GE Healthcare) at 4° C. overnight. The glutathione beads were then washed extensively with ice-cold TNE buffer, and bound proteins were subjected to SDS-PAGE followed by immunoblotting analysis. For the samples subjected to mass spectrometry, glutathione bead-bound proteins from equal amounts (600 μg) of mitochondria were further washed with high stringency RIPA buffer following TNE buffer wash to decrease nonspecific interaction. Proteins were then eluted from the glutathione beads in SDS sample buffer, separated by SDS-PAGE and stained with Coomassie. Proteins in the gel were digested with trypsin and analyzed by mass spectrometry (LC-MS/MS) at the Taplin Biological Mass Spectrometry Facility (Harvard Medical School, Boston, Mass.).

T1 sequence (P08515 whole entry): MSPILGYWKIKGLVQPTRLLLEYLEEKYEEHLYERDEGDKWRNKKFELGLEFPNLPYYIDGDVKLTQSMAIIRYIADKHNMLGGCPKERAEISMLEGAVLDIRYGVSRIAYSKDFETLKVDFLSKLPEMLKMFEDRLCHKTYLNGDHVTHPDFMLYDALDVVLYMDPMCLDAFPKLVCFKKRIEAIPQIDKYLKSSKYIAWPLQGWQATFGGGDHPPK

Binding result, no binding:
B1
B2
B3
B4
B5
B6
B7
B8
B9
B10
B11
B12
B13
B14
B15
B16
B17
B18
B19
B20
B21
B22
B23
B24
B25
B26
